According to patent US20190367619A1 (ARGENX, published 2019):
Where two headings read alike, the source gives them in different places.

T1: cynomolgus galectin-10-His, YRT isoform (cynomolgus)
T1 sequence: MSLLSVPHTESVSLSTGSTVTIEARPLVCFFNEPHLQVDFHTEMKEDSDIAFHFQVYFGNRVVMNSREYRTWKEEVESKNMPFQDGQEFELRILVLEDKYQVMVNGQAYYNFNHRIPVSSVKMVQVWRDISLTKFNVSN

T2: human galectin-10-His (recombinant human galectin-10 with TEV-cleavable N-terminal His-tag) (human)
T2 construct: SEC-MALLS: dimer in solution; also called Gal10-His; humanGal10-His
T2 chain: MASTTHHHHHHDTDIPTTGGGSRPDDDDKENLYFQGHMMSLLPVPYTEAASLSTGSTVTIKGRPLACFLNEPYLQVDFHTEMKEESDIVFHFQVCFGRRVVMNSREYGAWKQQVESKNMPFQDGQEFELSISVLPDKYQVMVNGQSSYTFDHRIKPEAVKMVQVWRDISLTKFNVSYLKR

T3: TEV-cleaved wild-type recombinant human galectin-10 (soluble, in Fab complexes, or as recombinant galectin-10 … (human, UniProt Q05315 1-142))
T3 sequence: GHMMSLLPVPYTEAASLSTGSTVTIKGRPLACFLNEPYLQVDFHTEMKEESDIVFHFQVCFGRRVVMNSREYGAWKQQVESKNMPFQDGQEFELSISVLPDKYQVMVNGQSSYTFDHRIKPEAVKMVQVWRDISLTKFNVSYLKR

T4: human galectin-10-His (human)
T4 construct: The last M of the tag may be Met1 of galectin-10; also called humanGal10-His; hGal10
T4 chain: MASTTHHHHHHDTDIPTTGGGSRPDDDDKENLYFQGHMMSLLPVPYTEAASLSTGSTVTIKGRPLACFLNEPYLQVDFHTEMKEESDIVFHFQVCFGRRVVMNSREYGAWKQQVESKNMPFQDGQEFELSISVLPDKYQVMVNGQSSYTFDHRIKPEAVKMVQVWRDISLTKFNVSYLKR

T5: cynomolgus galectin-10-His, WGS isoform (cynomolgus)
T5 construct: also called cynoGal10-WGS; not shown: His tag
T5 chain: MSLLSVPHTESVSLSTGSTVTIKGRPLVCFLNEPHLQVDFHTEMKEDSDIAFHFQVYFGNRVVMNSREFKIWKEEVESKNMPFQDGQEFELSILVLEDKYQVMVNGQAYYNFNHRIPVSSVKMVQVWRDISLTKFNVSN

T6: recombinant human galectin-10, TEV-cleaved (human, UniProt Q05315 1-142)
T6 sequence: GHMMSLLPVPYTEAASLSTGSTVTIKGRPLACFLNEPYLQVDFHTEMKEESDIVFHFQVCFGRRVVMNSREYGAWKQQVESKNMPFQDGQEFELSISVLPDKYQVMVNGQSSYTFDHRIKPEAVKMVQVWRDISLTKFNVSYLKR


Legend:
[1] = target: TEV-cleaved wild-type recombinant human galectin-10 (soluble, in Fab complexes, or as recombinant galectin-10 crystals / CLCs) (human) (UniProt Q05315); test: cell-based or functional assay
[2] = target: T1, cynomolgus galectin-10-His, YRT isoform (cynomolgus); test: ELISA, coated antigen 0.5 ug/mL
[3] = target: T2, human galectin-10-His (recombinant …); test: ELISA binding (summary table), mouse IgG1
[4] = target: T2, human galectin-10-His (recombinant …); test: ELISA, mouse IgG1 on coated galectin-10-His (0.2 ug/mL)
Method in brief: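 Serial dilutions of each antibody (from 100 nM, 1/4 steps, 12 points) were incubated on plates coated overnight with the antigen. Bound IgG1 detected with anti-mouse Fc-HRP, absorbance at 450 nm (reference 620 nm). EC50 from four-parameter variable-slope non-linear regression of OD values.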

[5] = target: T3, TEV-cleaved wild-type recombinant human …; test: cell-based or functional assay
[6] = target: T2, human galectin-10-His (recombinant …); test: BLI tandem on galectin-10-His; competitor: saturating 1C09 mIgG1 (10 ug/mL)
Method in brief: (§1)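 Anti-His tips load galectin-10-His → excess saturating mAb → direct transfer to competitor mAb (suboptimal conc.). Read-out: BLI nm shift; no signal = same epitope.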

[7] = target: T2, human galectin-10-His (recombinant …); test: BLI tandem on galectin-10-His; competitor: saturating 6A05 mIgG1 (10 ug/mL)
Method in brief: as §1

[8] = target: T2, human galectin-10-His (recombinant …); test: BLI tandem on galectin-10-His; competitor: saturating 6F06 mIgG1 (10 ug/mL)
Method in brief: as §1

[9] = target: T2, human galectin-10-His (recombinant …); test: BLI tandem on galectin-10-His; competitor: saturating 2F09 mIgG1 (10 ug/mL)
Method in brief: as §1

[10] = target: T2, human galectin-10-His (recombinant …); test: BLI tandem on galectin-10-His; competitor: saturating 6B06 mIgG1 (10 ug/mL)
Method in brief: as §1

[11] = target: T2, human galectin-10-His (recombinant …); test: BLI tandem on galectin-10-His; competitor: saturating 6E10 mIgG1 (10 ug/mL)
Method in brief: as §1

[12] = target: T3, TEV-cleaved wild-type recombinant human …; test: cell-based or functional assay; remark: listed apart in the source
[13] = target: T2, human galectin-10-His (recombinant …); test: SPR Biacore T3000, mouse IgG1 captured by anti-mouse Fc, galectin-10-His as analyte
Method in brief: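 Polyclonal anti-mouse Fc on a CM5 chip (8000 RU) captured each mouse IgG1 (1.5 μg/mL) to around 150 RU. Galectin-10-His was then injected as a 1:2 serial dilution from 5 μg/mL in HBS-EP pH7.4. After blank subtraction, kd/KD and Rmax came from a simultaneous ka/kd fit with mass transfer and local Rmax.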

[14] = target: T2, human galectin-10-His (recombinant …); test: BLI tandem on galectin-10-His; competitor: saturating 4E08 mIgG1 (10 ug/mL)
Method in brief: as §1

[15] = target: T2, human galectin-10-His (recombinant …); test: BLI tandem on galectin-10-His; competitor: saturating 6A08 mIgG1 (10 ug/mL)
Method in brief: as §1

[16] = target: T3, TEV-cleaved wild-type recombinant human …; test: cell-based or functional assay; remark: listed apart in the source
[17] = target: T2, human galectin-10-His (recombinant …); test: BLI tandem on galectin-10-His; competitor: saturating 1D11 mIgG1 (10 ug/mL)
Method in brief: as §1

[18] = target: T2, human galectin-10-His (recombinant …); test: BLI tandem on galectin-10-His; isotype control as saturating antibody (10 ug/mL)
Method in brief: as §1

[19] = target: T2, human galectin-10-His (recombinant …); test: BLI tandem on galectin-10-His; competitor: saturating 2C07 mIgG1 (10 ug/mL)
Method in brief: as §1

[20] = target: T2, human galectin-10-His (recombinant …); test: Biacore capture approach (summary table), mouse IgG1
Experimental: The binding capacity of the mouse IgG1 antibodies to galectin-10 was analyzed on Biacore T3000. For this purpose, a capture approach was set up. A CM5 Chip was coated with polyclonal anti-mouse Fc at 8000 RU, then a fixed concentration of the mouse IgG1 antibody panel (1.5 μg/mL), diluted in HBS-EP pH7.4, was captured to reach a binding signal around 150 RU. Finally, a serial dilution of galectin-10-His (serial dilution, 1 over 2 from 5 μg/mL) diluted in HBS-EP pH7.4 was injected. Raw data were analyzed via BIA evaluation software with a blank subtraction (4-3). The kd/KD and Rmax of each mAb to galectin-10-His was determined using the Fit Kinetics simultaneous ka/kd/Binding with mass transfer/Local Rmax on BIA evaluation software.

human galectin-10-His [21] = target: T4, human galectin-10-His; test: SPR Biacore T3000, mouse IgG1 captured
[22] = target: T5, cynomolgus galectin-10-His, WGS isoform; test: SPR Biacore T3000, mouse IgG1 captured
[23] = target: T6, recombinant human galectin-10, …; test: cell-based or functional assay
[24] = target: T6, recombinant human galectin-10, …; test: cell-based or functional assay; remark: listed apart in the source
human galectin-10-His [25] = target: T4, human galectin-10-His; test: ELISA, coated antigen 0.5 ug/mL
[26] = target: T5, cynomolgus galectin-10-His, WGS isoform; test: ELISA, coated antigen 0.5 ug/mL

Molecule	OD values [2]	EC50 [3]	Bmax [4]	EC50 [4]	dissolution of in vitro grown Gal10 crystals (spinning disk confocal microscopy) [5]	binding signal (nm) [6]	binding signal (nm) [7]	binding signal (nm) [8]	binding signal (nm) [9]	binding signal (nm) [10]	binding signal (nm) [11]	100% Solubilization of CLC (Conc uM) [12]	Kd [13]	koff [13]	binding signal (nm) [14]	binding signal (nm) [15]	100% Inhibition of CLC formation (Conc uM) [16]	100% Solubilization of CLC (Conc uM) [16]	binding signal (nm) [17]	binding signal (nm) [18]	also measured
mouse IgG1 isotype control (irrelevant mouse IgG1) (antibody)																					CLC formation (crystallization robot assay) [1]: 100%
1D11 mouse IgG1 (antibody, V domains shown) VH: QVQLVESGGGLVQPGGSLRLSCAASGFTFDDYAMSWVRQAPGKGLEWVSGISWNGGSTYYAESMKGRFTISRDNAKNTLYLQMNSLKSEDTAVYYCAKDRNLGYRLGYPYDYWGQGTQVTVSS VL: QSVLTQPPSVSGSPGETVTISCAGTSSDVGYGNYVSWYQQLPGMAPRLLIYEVNKRASGITDRFSGSKSGNTASLTISGLQSEDEGDYYCASYRSSNNAVFGGGTHLTVL	0.03 OD																				
4E08 mouse IgG1 (antibody, V domains shown, VH on mouse IgG1 heavy chain constant domains (CH1-CH2-CH3), VL on mouse lambda light chain constant domain; also called 4E8; 4E08 mIgG1) VH: QVQRQESGPGLVKPSQTLSLTCTVSGGSITTSYYAWSWIRQPPGKGLEWMGVIASDGSTYYSPSLKSRTSISRDTSKNQFSLQLSSVTPEDTAVYYCALYIRGSSWSGWSAYDYWGQGTQVTVSS VL: QPVLNQPSAVSVSLGQTARITCQGGNFGYYYGSWYQQKPGQAPVLVIYKDSERPSGIPERFSGSSSGGTATLTISRAQAEDEADYYCQSADSSDNPVFGGGTHLTVL		3.22 nM	2.06 OD	3.22 nM	≤ 90 min	-0.02 nm	0.03 nm	0.01 nm	0.01 nm	0 nm	-0.05 nm	> 10 µM	0.8 nM	0.00085 s⁻¹	-0.08 nm	-0.03 nm	1.11 µM	> 10 µM	0.03 nm	0.97 nm	binding signal (nm) [19]: 0 nm; Kd [20]: 0.8 nM; koff [20]: 0.00085 s⁻¹
1C09 mouse IgG1 (antibody, V domains shown, VH on mouse IgG1 heavy chain constant domains (CH1-CH2-CH3), VL on mouse lambda light chain constant domain; also called 1C09 mIgG1) VH: QVQLVESGPGLVKPSQTLSLTCTVSGGSITTNSYYWSWIRQPPGKGLEWMGAIAYSGSTYYSPSLKSRTSISRDTSKNQFTLHLSSVTPEDTAVYYCARRPNWYRALDAWGQGTLVTVSS VL: NFMLTQPSAVSVSLGQTARITCQGANLGRYYGIWYQQKPGQAPVQVIYGDSNRPSGIPERFSGSSSGGTATLTISGAQAEDEADYYCQSYESSTSPVFGGGTHLTVL		0.13 nM	2.3 OD	0.13 nM	≤ 90 min	0.03 nm	0.09 nm	0.04 nm	0.02 nm	0.02 nm	0.02 nm	10.5 µM	0.5 nM	0.00529 s⁻¹	0.08 nm	0.04 nm	0.82 µM	10.5 µM	0.1 nm	1.21 nm	binding signal (nm) [19]: 0.03 nm; Kd [20]: 0.5 nM; koff [20]: 0.00529 s⁻¹
7B07 mouse IgG1 (antibody, V domains shown, VH and VL cloned in frame with mouse IgG1 constant domains; also called 7B07 mIgG1) VH: QVQLVESGGGLVQPGGSLRLSCAASGFTFRSYDMSWVRQAPGKGPEWVSAIKNGGGITYYADSVKGRFTISRDNAKNTLYLQMNSLKPEDTAVYYCATTHGIGTLGFGSWGQGTQVTVSS VL: SYELTQSASVSVALTQTAKITCDGNNIGSKSAQWYQQKPGQAPALVIYADEYRPEGIPERFSGSNSGNTATLIISGAQAEDEADYYCQVWDGSAAVFGRGTHLTVL	0.01 OD																				Kd (human galectin-10-His [21]): 1.4 nM; koff (human galectin-10-His [21]): 0.0039 s⁻¹; kon (human galectin-10-His [21]): 2.78e+06 M⁻¹ s⁻¹; Kd [22]: 1.5 nM; koff [22]: 0.066 s⁻¹; kon [22]: 4.54e+07 M⁻¹ s⁻¹; 50% dissolution (min) of CLCs, antibody 50 uM [23]: 13.2 min; 90% dissolution (min) of CLCs, antibody 50 uM [23]: 44.4 min; 50% crystal dissolution (min), 50 uM [24]: 31.8 min; 90% crystal dissolution (min), 50 uM [24]: 93 min; EC50 (human galectin-10-His [25]): 0.57 nM; OD values (human galectin-10-His [25]): 0.4 OD; EC50 [26]: 0.06 nM; OD values [26]: 3.22 OD
